Source: article PMC3458530

Legend:
Assay in all cases: EMSA
DNMT3A full-length = DNMT3A full-length (human, UniProt Q9Y6K1 1-912)
[1] = molecular target: DNMT3A catalytic domain (cDNMT3A) (human, UniProt Q9Y6K1 612-912)
M.HhaI = molecular target: T1, M.HhaI (bacterial (species ), UniProt P05102 1-327)
T1 sequence: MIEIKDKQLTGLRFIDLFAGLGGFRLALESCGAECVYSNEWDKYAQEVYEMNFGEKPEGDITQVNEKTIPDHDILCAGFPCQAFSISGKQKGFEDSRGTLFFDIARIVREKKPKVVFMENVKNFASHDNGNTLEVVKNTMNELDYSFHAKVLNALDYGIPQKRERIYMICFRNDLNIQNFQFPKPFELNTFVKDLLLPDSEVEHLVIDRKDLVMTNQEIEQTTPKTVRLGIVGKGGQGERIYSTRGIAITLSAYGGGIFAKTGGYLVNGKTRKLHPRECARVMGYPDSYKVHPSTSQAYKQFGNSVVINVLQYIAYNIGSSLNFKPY

Sequence of DNMT3A full-length (Q9Y6K1 whole entry, the tested form may be a part): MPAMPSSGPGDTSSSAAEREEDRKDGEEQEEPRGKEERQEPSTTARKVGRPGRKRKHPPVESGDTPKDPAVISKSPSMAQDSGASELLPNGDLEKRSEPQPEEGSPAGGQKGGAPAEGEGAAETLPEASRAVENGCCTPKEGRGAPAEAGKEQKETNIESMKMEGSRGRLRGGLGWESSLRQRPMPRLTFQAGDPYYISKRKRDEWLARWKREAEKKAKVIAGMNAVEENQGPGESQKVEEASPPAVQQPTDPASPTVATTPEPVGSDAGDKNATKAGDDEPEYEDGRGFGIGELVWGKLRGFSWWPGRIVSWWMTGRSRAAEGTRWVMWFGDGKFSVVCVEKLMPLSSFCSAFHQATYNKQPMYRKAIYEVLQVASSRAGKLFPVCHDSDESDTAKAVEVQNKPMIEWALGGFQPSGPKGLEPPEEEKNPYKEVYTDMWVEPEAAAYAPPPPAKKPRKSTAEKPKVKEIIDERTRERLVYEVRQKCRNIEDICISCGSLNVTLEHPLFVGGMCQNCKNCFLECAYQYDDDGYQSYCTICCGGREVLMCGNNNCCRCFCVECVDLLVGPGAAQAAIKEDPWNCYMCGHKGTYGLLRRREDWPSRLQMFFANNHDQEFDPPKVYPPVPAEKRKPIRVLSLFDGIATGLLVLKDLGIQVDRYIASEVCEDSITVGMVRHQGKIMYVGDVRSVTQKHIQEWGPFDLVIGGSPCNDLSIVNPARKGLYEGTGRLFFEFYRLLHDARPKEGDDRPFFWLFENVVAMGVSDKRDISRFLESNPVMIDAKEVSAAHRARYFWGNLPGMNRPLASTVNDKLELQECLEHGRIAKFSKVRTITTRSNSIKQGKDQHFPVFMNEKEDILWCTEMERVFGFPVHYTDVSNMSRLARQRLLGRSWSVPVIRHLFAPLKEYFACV
Sequence of DNMT3A catalytic domain (cDNMT3A) (Q9Y6K1 612-912): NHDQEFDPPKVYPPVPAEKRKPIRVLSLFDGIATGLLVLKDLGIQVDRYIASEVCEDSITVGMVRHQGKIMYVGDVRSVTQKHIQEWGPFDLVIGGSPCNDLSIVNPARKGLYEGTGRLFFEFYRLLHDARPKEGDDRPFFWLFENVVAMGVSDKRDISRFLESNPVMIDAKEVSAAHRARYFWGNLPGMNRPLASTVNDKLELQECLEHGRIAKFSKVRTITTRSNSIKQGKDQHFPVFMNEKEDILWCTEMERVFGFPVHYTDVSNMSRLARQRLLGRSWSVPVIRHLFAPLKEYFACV

B1: NUP153 duplex siRNA (dsRNA)
RNA 1: ACCAAAUAAAACUGGCAAATT
RNA 2: UUUGCCAGUUUUAUUUGGUTT
modifications: 3' dTdT on both strands (DNA residues)
- Kd (DNMT3A full-length): 0.52 µM

B2: EFS1 (ssEF1a RNA) (ssRNA)
RNA: GAGUUUACCCCGCGCCACCUU
- Kd (DNMT3A full-length): 0.69 µM
- binding result [1]: no binding
- binding result (M.HhaI): no binding
